Measured values published in the nanobody polyreactivity screen of Harvey et al. (2022).

Assay: yeast display, Sf9 membrane polyspecificity reagent, FACS + sequencing; frameworks hold sequencing errors
Procedure, shortened: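 Using colony PCR, genes from sorted yeast display clones were amplified, then sequenced on MiSeq at 2 × 250 and filtered by CDR length. The clones had been stained with 10% biotinylated, detergent-solubilized Sf9 membrane reagent for 1 hour at 4 °C and sorted by FACS into low and high (top ~1%) gates on anti-HA and streptavidin fluorescence. Polyreactivity labels come from the gate of origin.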

Sequence | polyreactivity (PSR sort gate)
QVQLVESGGGLVQAGGSLRLSCAASGRILQYNVMGWYRQAPGKERELVATISSGGTTNYADSVKGRFTISRDNAKNTVYLQMNSLKPEDTAVYYCAAGLPRKRVQYDYWGQGTQVTVSS | low polyreactivity
QVQLVESGGGLVQAGGSLRLSCAASGITFYYYAMGWYRPAPGKERELVADITGTGSRTYYADSVKGRFTISRDNAKNTVYLQMNSLKPEDTAVYYCAATKRFPWFVYGEGDSWGQGTQVTVSS | high polyreactivity
QVQLVESGGGLVQAGGSLRLSCAASGSTFESYAMGWYRQAHGKERELVASISRSGGTTFYADSVKGRFTISRDNAKNTVYLQMNSLKPEDTAVYYCAAKRRRLGGDYWGQGTQVTVSS | high polyreactivity
QVQLVESGGGIVQAGGSLRLSCAASGFTFRGNAMGWYRQAPGKERELVAVINASGDSTYYADSVKGRFTISRDNAKNTVYLQMNSLKPEDTAVYYCARAYTRRWRYDYWGQGTQVTVSS | high polyreactivity
QVQLVESGGGLVQAGGSLRLSSSACGSTFYKNAMGWDRQAPGKERELVAGISRRGGRTYYADSLKGRFTISRDNANNTVYLQMNSLKPVDTADYYCNTGHEEDEYDYWGQGTQVTVSS | low polyreactivity
QVQLVESGGGLVQAGGSLRLSCAASGRIFGNYAMGWYRQAPGKERELVAAISGGGSTYYADSVKGRFTISRDNAKNTVYLQMNSLKPEDTAVYYCAARFLWSVFGRKGGFWGQGTQVTVSS | low polyreactivity
QVQLVESGGGLVQAGGSLRLSCASSGSTFRYYAMGWYRPPPGKEREWVAVITSGGSTYYADSVKGRFTISRDNAKNTVSLQMNSLKPEDTAVDYCAAVYAFYVDFDYWGQGTQVTVSS | low polyreactivity
QVQLVESGGGLVQAGGSLRLRCAASGITFSRNAMGAYRQAPGKERELVATITSGGSTNYADSVKGRFTISRDNAKNTVYLQMNSLKPEDTAVYYCNADWNTFISGRSYDYWGQGTQVTVSS | low polyreactivity
QVQLVESGGGLVQAGGSLRLSCAASGRTFGYYAMGWYRQAPGQERELVAAISWSDSGTYYADSVKGRFTISRDNAKNTVYLQMNSLKPEDTAVYYCAKDEPYFVFRDTYDYWGQGTQVTVSS | high polyreactivity
QVQLVESGGGLVQAGGSLRLSCAASGSIFSVYAMGWYRQAPGKERELVASITSGGRTKYADSVKGRFTISRDNAKNTVYLQMNSLKQEDTAVYYCAKDGGGLLRWYTDEYDYWGQGTQVTVSS | low polyreactivity
QVQLVESGGGLVQAGGSLRLSCAASGRTFYRYAMGWYRQAPGKERELVAAITGGGRTYYADSVKGRFTISRDNAKNTVYLQMNSLKPEDTAVYDCAAVVLRRPAYDYWGQGTQVTVSS | low polyreactivity
QVQLVESGGGLVQAGGSLRLSCAASGSIFFLYAMGWYRQAPGKERELVAAISGGGGSTYYADSVKGRFTISRDNAKNTVYLQMNSLKPEDTAVYYCDALSKTRGGYWGQGTQVTVSS | high polyreactivity
QVQLVESGGGLVQAGGSLRLSCAASGRIFRYYAMGWYRQAPGKDRELVAAIRSASSTYYADSVKGRFTISRDNAKNTVYVQMNSLKPEDTAVSYCAARLYGVYKRRYYYWGQGTQVTVSS | high polyreactivity
QVQLVESGGGLVQAGGSLRLSCAASGRIFSRKTMGWYRQAPGKEREFVAAISQSGGRTYYADSVKGRFTISRDNAKNTVYLQMNSLKPEDTAVYYCNAQFARSSGFNYWGQGTQVTVSS | high polyreactivity
QVQLVESGGGLVQAGGSLRLSCAASGRIFVFYVMGWYRQAPGKERELVAAITRTGGSTYYADSVKGRFTISRDNAKNTVYLQMNSLKPEDTAVYYCATRYTRLRHFDYWGQGTQVTVSS | low polyreactivity
QVQLVESGGGLVQAGGSLRLSCAASGRIFAWNAMGWYRQAPGKERELVAAITRGTNTYYADSVKGRFTISRDNAKNTVYLQMNSLKPEDTAVYYCAARLPYNAIGYYYWGQGTQVTVSS | low polyreactivity
QVQLVESGGGLVQAGGSLRLSCAASGRIFNGYAMGWYRQAPGKERELVAAINSSGGSTYYADSVKGRFTISRDNAKNTVFLQMNSLKPEDTAVYYCARVSYHYRTYDYWGQGTQVTVSS | high polyreactivity
QVQLVESGGGLFQAGGSLRLSCAASGRTFYKYAMGWYRQAPGKERELVATITSGGSTNYADSVKGRFTISRDNAKNTVYLQLNCLKPEETAVYYFAARGHIYKIRDPYWTHDFWGQGTQVTVSS | low polyreactivity
QVQLVESGGGLVQAGGSLRLSCAASGRTFGSYGMGWYRQAPGKERELVAAISRSVGSTYYADSVKGRFTISRDNAKITVYLQMNSLKPEDTAVYYCNTVDRRRYAGHYYWGQGTQVTVSS | high polyreactivity
QVQLVESGGGLVQAGGSLRLSCAASGIIFFPYAMVWYRQAPGKEREFVAAITSRGGSTYYADSVKGRFTISRDNAKNTVYLQMNSLNPEDTAVYYFAADGWLWSFTGDGWWFDYWGQGTQVTVSS | low polyreactivity
QVQLVESGGGLVQAGGSIRLSCAASGRIFRYYHMGWYRQAPGKERELVARISSTGRTYADSVKGRFTISRDNAKNSVYLQMYSLKPEDTAVYFCAALFHTRGHSKYDYWGQGTQVTVSS | high polyreactivity

Sequence | polyreactivity (PSR sort gate)
QVQLVESGGGLVQAGGSLRLSCAASGSTFEPYAMGCYRQAPGKERELVAAISWSGGSTYYADSVKGRFTISRDNAKNTVDLQMNSLKPEDTAVYYCAAESGVPYYLPVVIYYYWGQGTQVTVSS | high polyreactivity
QVQLVESGGGLVQAGGSLRLSCAASGSTFSANAMGWYRQAPGKERELLAAISSGDITYYADSVKGRFTISRDNAKNTVYLQMNSLKPEDTAVYYCAKYTRPTGNVDDGFEYWGQGTQVTVSS | low polyreactivity
QVQLVESGGGLVQAGGSLRLSCAASGRIFLSNAMGWYRQAPGKERELVASITSGGSTNYADSVKGRFTISRDNAKNTVYLQMNSLKPEDTAVYYCAKRYRHSGYFVGFNYWGQGTQVTVSS | high polyreactivity
QVQLVESGGGLVQAGGSLRLSCAASGSTFWGNAMGWYRQAPGKERELVAAISNGGSTNYADSVKGRFTISRDNAKNTVYLQMNSLKPEDTAVYYCAADGHTSNGVSLHGYWGQGTQVTVSS | low polyreactivity
QVQLVESGGGLVQAGGSLRLSCAASGRIFNTYAMGWYRQAPGKERELVAAITSSGGSTYYADSVKGRFTISRDNEKNTVYLQLNSLKPEDTAVYYCAKPWYVRGGSSKYVYWGQGTQVTVSS | high polyreactivity
QLQLVESGGGLVKAGGSLRLSCADSGLIFRNNCMGGYRHAPRKERELVAAISNRGGSTYYADSVKGRFTISRDNAKNTVYLQMNSLKPEDTAVYDCNAVASYSQGGYRYDYWGQGTQVTVSS | high polyreactivity
QVQLVESGGGLVQAGGSLRLSCAASGRIFVAYTMGWYRQAPGKERELVAAISTNGGRTYYADSVKGRFTISRDNAKNTVYLQMNSLKPEDTAVYYCAAYRGPRADYYWGQGTQVTVSS | high polyreactivity
QVQLVESGGGLVQAGGSLRLSCAASGSIFYSYAMGWYRQAPGKERELVAAISWDASTYYADSVKGRFTISRDNAKNTVDLQMNSLKPEDTAVYYCNKRWFAPPPYSYVRSYDYWGQGTQVTVSS | low polyreactivity
QVQLVESGGGLVQAGGSLRLSCAASRSIFSQYSRGCYRQAPGKERELVATITWRGGSNTNYADSVKGRFTISRDNAKNTVYLQMNSLKPEDTAVYYCNAAFPYHYRFDYWGQGTQVTVSS | low polyreactivity
QVQLVESGGGLVQAGGSLRLSCAASGSIFVEYAMGWYRQAPGQERELVAAISYSGSSTNYADSVKGRFTISRDNAKNTVYLQINSLKPEDTAVYYSNADGTGGEQKPYYELDYWGQGTQVTVSS | low polyreactivity
QVQLVESGGGLVQAGGSLRLSCAASGRIFVYNAMGWYRQAPGKERELVAAISWSGGSTYYADSVKGRFTISRDNAKNTVYLQMNSLKPEDTAVYYCAAYYSARRGHYRNSYGYDYWGQGTQVTVSS | high polyreactivity
QVQLVESGGGLVQAGGSLRLSCAASGYTFNGYAMGWYRQAPGKERELVAAISWSGGSTYYADSVKGRFTISRDNAKNTFYLQMNSLKPEDTAVYYCARRGPSGVYNDGGYGLDDDYWGQGTQVTVSS | low polyreactivity
QVQLVESGGGLVQAGGSLRLSCASSGLIFYKNAMGWYRQAPGKVRELVAAISWRDGRTYYADSVKGRFTISRDNAKNTVYLQMNSLKPEDTAVYYCNAVRGITYYDYFYWGQGTQVTVSS | high polyreactivity
QVQLVESGGGLVQAGGSLRLSCAASGSIFSYYDMGWYRQAPGKERELVADISSTGGSTYYADSVKGRFTISRDNAKNTVSIQMNSLKPEDTAVYYCAAEIGYWGQGTQVTVSS | high polyreactivity
QVQLVESGGGLVQAGGSLRLSCAASGFIFYFYAMGWYRQAPWKERELVAAISSGGSTNYADSVKGRFTISRDNAKNTVYLQMISLKPEDTAVYYCARKTSSYFGHYYYWGQGTQVTVSS | low polyreactivity
QVQLVESGGGLVQAGGSLRLSCAASGRIFDWYAMGWYRQAPGKERELVAAISTSGANTYYADSVKGRFTISRDNAKNTVYLQMNSLKPEDTAVYYCATDPYQPYEGDYWGQGSQVTVSS | low polyreactivity
QVQLVESGGGLVQAGGSLRLSCAASGSIFYTNVMGWYRQAPGKERELVAVISSGGSTYYADSVKGRFTISRDNAKNTVYFQMNSLKPEDTAGYYCNADSVSSPPYYDYWGQGTQVTVSS | high polyreactivity
QVQLVESGGGLVQAGGSLRLSCAASGSIFWLYAMGWYRQAPGKERELVASITGGGSTNYADSVKGRFTISRDNAKNTVYLQMNSLKPEDTAVYYCAKRYYRPGRKRTGLDYWGQGTQVTVSS | high polyreactivity
QVQLVESGGGLVQAGGSLRLSCAASGRTFPYYAKGWYRQAPGKERELVAAISKRGGNTYYADSVKGRFTISRDNAKNTVYLQLNSLIPEVTAVYYCNALSSTEYDYWGQGTQVTVSS | high polyreactivity
QVQLVESGGGLVQAGGSLRLSCAASGSTFKRNAMGWSRQAPGKEWELVAAITFSGATTYYADSVKGRFTISRDNAKNTVYLQMNSLKPEDTAVYYCATKAYTTGRYYWGQGTQVTVSS | high polyreactivity
